Experimental findings from the supplement of paper PMC11246515 are described below.

± gives the standard deviation of the averaged measurements.

The data set can be described thus: total protein half-life in vivo (active degradation + dilution); higher = more stable protein.
Setting [1] is: E. coli NCM3722 delta-clpP, growth: N-lim chemostat, doubling time 6 h.
The mark [2] stands for this setting: E. coli NCM3722 delta-hslV, growth: N-lim chemostat, doubling time 6 h.
[3] abbreviates: E. coli NCM3722 delta-lon, growth: N-lim chemostat, doubling time 6 h.
The mark [4] stands for this setting: E. coli NCM3722 delta-smpB, growth: N-lim chemostat, doubling time 6 h.
The mark [5] stands for this setting: wild type E. coli NCM3722, growth: N-lim chemostat, doubling time 6 h.
Setting [6] is: wild type E. coli NCM3722, growth: N-lim chemostat, doubling time 12 h.
Where [7] appears, read: E. coli NCM3722 delta-clpP delta-lon delta-hslV, growth: N-lim chemostat, doubling time 6 h.
Where [8] appears, read: wild type E. coli NCM3722, growth: C-lim chemostat, doubling time 3 h.
Setting [9] is: wild type E. coli NCM3722, growth: C-lim chemostat, doubling time 6 h.
[10] abbreviates: wild type E. coli NCM3722, growth: C-lim chemostat, doubling time 12 h.
Where [11] appears, read: wild type E. coli NCM3722, growth: P-lim chemostat, doubling time 6 h.
The mark [12] stands for this setting: wild type E. coli NCM3722, growth: P-lim chemostat, doubling time 12 h.

In the case of “MAMFGFPHWQLKSTSTESGVVAPDERLPFAQTAVMGVQHAVAMFGATVLMPILMGLDPNLSILMSGIGTLLFFFITGGRVPSYLGSSAAFVGVVIAATGFNGQGINPNISIALGGIIACGLVYTVIGLVVMKIGTRWIERLMPPVVTGAVVMAIGLNLAPIAVKSVSASAFDSWMAVMTVLCIGLVAVFTRGMIQRLLILVGLIVACLLYGVMTNVLGLGKAVDFTLVSHAAWFGLPHFSTPAFNGQAMMLIAPVAVILVAENLGHLKAVAGMTGRNMDPYMGRAFVGDGLATMLSGSVGGSGVTTYAENIGVMAVTKVYSTLVFVAAAVIAMLLGFSPKFGALIHTIPAAVIGGASIVVFGLIAVAGARIWVQNRVDLSQNGNLIMVAVTLVLGAGDFALTLGGFTLGGIGTATFGAILLNALLSRKLVDVPPPEVVHQEP”, the “total protein half-life in vivo” value is 4.84 ± 1.8 h under setting [1]; 3.33 ± 1.9 h under setting [2]; greater than 8 h under setting [3]; 3.66 ± 0.6 h under setting [4]; 3.82 h under setting [5]; 5.58 ± 0.86 h under setting [6].
Regarding “MKQYLIAPSILSADFARLGEDTAKALAAGADVVHFDVMDNHYVPNLTIGPMVLKSLRNYGITAPIDVHLMVKPVDRIVPDFAAAGASIITFHPEASEHVDRTLQLIKENGCKAGLVFNPATPLSYLDYVMDKLDVILLMSVNPGFGGQSFIPQTLDKLREVRRRIDESGFDIRLEVDGGVKVNNIGEIAAAGADMFVAGSAIFDQPDYKKVIDEMRSELAKVSHE [P0AG07]”, the “total protein half-life in vivo” value was 5.23 ± 0.28 h under setting [7]; 4.58 ± 0.58 h under setting [1]; 5.6 ± 1.7 h under setting [2]; 4.69 ± 0.12 h under setting [3]; 4.27 ± 0.7 h under setting [4]; 3.2 ± 0.21 h under setting [8]. In addition, the “total protein half-life in vivo” value turned out to be 5.43 ± 0.99 h under setting [9]; 11.4 ± 0.82 h under setting [10]; 4.84 ± 0.16 h under setting [5]; 7.52 ± 0.15 h under setting [6]; 5.72 ± 0.56 h under setting [11]; 12 ± 0.16 h under setting [12].
In the case of “MQNTTHDNVILELTVRNHPGVMTHVCGLFARRAFNVEGILCLPIQDSDKSHIWLLVNDDQRLEQMISQIDKLEDVVKVQRNQSDPTMFNKIAVFFQ [P0ADF8]”, the “total protein half-life in vivo” value reads like this: under setting [7], 5.25 ± 2.1 h; under setting [1], 1.6 ± 0.35 h; under setting [2], 1.74 ± 0.22 h; under setting [3], 2.35 h; under setting [4], 1.62 ± 0.038 h; under setting [8], 2.47 ± 0.37 h. The “total protein half-life in vivo” value runs as follows: under setting [9], 3.63 ± 0.07 h; under setting [10], 4.56 ± 0.67 h; under setting [5], 1.447 ± 0.0047 h; under setting [6], 2.29 ± 0.29 h; under setting [11], 2.71 ± 0.66 h; under setting [12], 5.91 ± 0.75 h.
Regarding “MTNTWNRLALLIFAVLSLLVAGELQAGVVVGGTRFIFPADRESISILLTNTSQESWLINSKINRPTRWAGGEASTVPAPLLAAPPLILLKPGTTGTLRLLRTESDILPVDRETLFELSIASVPSGKVENQSVKVAMRSVFKLFWRPEGLPGDPLEAYQQLRWTRNSQGVQLTNPTPYYINLIQVSVNGKALSNVGVVPPKSQRQTSWCQAIAPCHVAWRAINDYGGLSAKKEQNLP”, the “total protein half-life in vivo” value under setting [8] was 2.87 h and the “total protein half-life in vivo” value under setting [6] is 3.48 h.
On to “MMELMVVHPHIFWLSLGGLLLAAEMLGGNGYLLWSGVAAVITGLVVWLVPLGWEWQGVMFAILTLLAAWLWWKWLSRRVREQKHSDSHLNQRGQQLIGRRFVLESPLVNGRGHMRVGDSSWPVSASEDLGAGTHVEVIAIEGITLHIRAVSS [P0AAS3]”, for which the “total protein half-life in vivo” value by setting is: under setting [7], 6.35 ± 0.63 h; under setting [1], 6.38 ± 0.81 h; under setting [2], 5.57 ± 0.15 h; under setting [3], 5.91 h; under setting [4], 6.81 h; under setting [8], 2.86 h. Besides, the “total protein half-life in vivo” value runs as follows: under setting [9], greater than 8 h; under setting [10], 10.5 ± 1.8 h; under setting [5], 6.42 ± 0.38 h; under setting [6], 11.1 ± 0.17 h; under setting [11], 7.12 h; under setting [12], 10.6 ± 0.41 h.
Take “MERVYRTDLKLLRYFLAVAEELHFGRAAARLNMSQPPLSIHIKELENQLGTQLFIRHSRSVVLTHAGKILMEESRRLLVNANNVLARIEQIGRGEAGRIELGVVGTAMWGRMRPVMRRFLRENPNVDVLFREKMPAMQMALLERRELDAGIWRMATEPPTGFTSLRLHESAFLVAMPEEHHLSSFSTVPLEALRDEYFVTMPPVYTDWDFLQRVCQQVGFSPVVIREVNEPQTVLAMVSMGIGITLIADSYAQMNWPGVIFRPLKQRIPADLYIVYETQQVTPAMVKLLAALTQ”: the “total protein half-life in vivo” value by setting is: under setting [1], 3.26 ± 0.21 h; under setting [2], 3.03 h; under setting [5], 3.31 h; under setting [6], 5.46 h.
“MSTPDNHGKKAPQFAAFKPLTTVQNANDCCCDGACSSTPTLSENVSGTRYSWKVSGMDCAACARKVENAVRQLAGVNQVQVLFATEKLVVDADNDIRAQVESALQKAGYSLRDEQAAEEPQASRLKENLPLITLIVMMAISWGLEQFNHPFGQLAFIATTLVGLYPIARQALRLIKSGSYFAIETLMSVAAIGALFIGATAEAAMVLLLFLIGERLEGWAASRARQGVSALMALKPETATRLRKGEREEVAINSLRPGDVIEVAAGGRLPADGKLLSPFASFDESALTGESIPVERATGDKVPAGATSVDRLVTLEVLSEPGASAIDRILKLIEEAEERRAPIERFIDRFSRIYTPAIMAVALLVTLVPPLLFAASWQEWIYKGLTLLLIGCPCALVISTPAAITSGLAAAARRGALIKGGAALEQLGRVTQVAFDKTGTLTVGKPRVTAIHPATGISESELLTLAAAVEQGATHPLAQAIVREAQVAELAIPTAESQRALVGSGIEAQVNGERVLICAAGKHPADAFTGLINELESAGQTVVLVVRNDDVLGVIALQDTLRADAATAISELNALGVKGVILTGDNPRAAAAIAGELGLEFKAGLLPEDKVKAVTELNQHAPLAMVGDGINDAPAMKAAAIGIAMGSGTDVALETADAALTHNHLRGLVQMIELARATHANIRQNITIALGLKGIFLVTTLLGMTGLWLAVLADTGATVLVTANALRLLRRR”: the “total protein half-life in vivo” value is, setting by setting: under setting [7], 4.91 ± 0.22 h; under setting [1], 4.33 ± 0.16 h; under setting [2], 4.07 ± 0.092 h; under setting [3], 5.05 ± 0.95 h; under setting [4], 4.331 ± 0.021 h; under setting [8], 2.62 ± 0.26 h. Further, the “total protein half-life in vivo” value under setting [9] was 4.55 ± 0.4 h; the “total protein half-life in vivo” value under setting [10] came out at 6.13 ± 1.8 h; the “total protein half-life in vivo” value under setting [5] worked out at 3.874 ± 0.016 h; the “total protein half-life in vivo” value under setting [6] is 7.59 ± 0.2 h; the “total protein half-life in vivo” value under setting [11] was found to be 4.2 ± 0.081 h; the “total protein half-life in vivo” value under setting [12] was determined as 7.64 ± 0.21 h.
As to “MSYLNLRLYQRNTQCLHIRKHRLAGFFVRLVVACAFAAQAPLSSADLYFNPRFLADDPQAVADLSRFENGQELPPGTYRVDIYLNNGYMATRDVTFNTGDSEQGIVPCLTRAQLASMGLNTASVAGMNLLADDACVPLTTMVQDATAHLDVGQQRLNLTIPQAFMSNRARGYIPPELWDPGINAGLLNYNFSGNSVQNRIGGNSHYAYLNLQSGLNIGAWRLRDNTTWSYNSSDRSSGSKNKWQHINTWLERDIIPLRSRLTLGDGYTQGDIFDGINFRGAQLASDDNMLPDSQRGFAPVIHGIARGTAQVTIKQNGYDIYNSTVPPGPFTINDIYAAGNSGDLQVTIKEADGSTQIFTVPYSSVPLLQREGHTRYSITAGEYRSGNAQQEKTRFFQSTLLHGLPAGWTIYGGTQLADRYRAFNFGIGKNMGALGALSVDMTQANSTLPDDSQHDGQSVRFLYNKSLNESGTNIQLVGYRYSTSGYFNFADTTYSRMNGYNIETQDGVIQVKPKFTDYYNLAYNKRGKLQLTVTQQLGRTSTLYLSGSHQTYWGTSNVDEQFQAGLNTAFEDINWTLSYSLTKNAWQKGRDQMLALNVNIPFSHWLRSDSKSQWRHASASYSMSHDLNGRMTNLAGVYGTLLEDNNLSYSVQTGYAGGGDGNSGSTGYATLNYRGGYGNANIGYSHSDDIKQLYYGVSGGVLAHANGVTLGQPLNDTVVLVKAPGAKDAKVENQTGVRTDWRGYAVLPYATEYRENRVALDTNTLADNVDLDNAVANVVPTRGAIVRAEFKARVGIKLLMTLTHNNKPLPFGAMVTSESSQSSGIVADNGQVYLSGMPLAGKVQVKWGEEENAHCVANYQLPPESQQQLLTQLSAECR”, the “total protein half-life in vivo” value is 5.97 ± 0.21 h under setting [4]; 3.14 h under setting [8]; 6.02 h under setting [9]; greater than 16 h under setting [10]; greater than 8 h under setting [5]; greater than 16 h under setting [6]. Also, the “total protein half-life in vivo” value is, setting by setting: under setting [11], 6.2 h; under setting [12], greater than 16 h.
In the case of “MSRNTEATDDVKTWTGGPLNYKEGFFTQLATDELAKGINEEVVRAISAKRNEPEWMLEFRLNAYRAWLEMEEPHWLKAHYDKLNYQDYSYYSAPSCGNCDDTCASEPGAVQQTGANAFLSKEVEAAFEQLGVPVREGKEVAVDAIFDSVSVATTYREKLAEQGIIFCSFGEAIHDHPELVRKYLGTVVPGNDNFFAALNAAVASDGTFIYVPKGVRCPMELSTYFRINAEKTGQFERTILVADEDSYVSYIEGCSAPVRDSYQLHAAVVEVIIHKNAEVKYSTVQNWFPGDNNTGGILNFVTKRALCEGENSKMSWTQSETGSAITWKYPSCILRGDNSIGEFYSVALTSGHQQADTGTKMIHIGKNTKSTIISKGISAGHSQNSYRGLVKIMPTATNARNFTQCDSMLIGANCGAHTFPYVECRNNSAQLEHEATTSRIGEDQLFYCLQRGISEEDAISMIVNGFCKDVFSELPLEFAVEAQKLLAISLEHSVG”, the “total protein half-life in vivo” value came out at 4.92 ± 0.3 h under setting [7]; 2.89 ± 0.11 h under setting [1]; 1.46 ± 0.085 h under setting [2]; 1.98 ± 0.2 h under setting [3]; 1.58 ± 0.085 h under setting [4]; 1.85 ± 0.4 h under setting [8]. In addition, the “total protein half-life in vivo” value stood at 3.12 ± 0.02 h under setting [9]; 4.99 ± 0.85 h under setting [10]; 1.51 ± 0.56 h under setting [5]; 2.29 h under setting [6]; 3.223 ± 0.00026 h under setting [11]; 5.113 ± 0.048 h under setting [12].
Turning to “MSEPLDLNQLAQKIKQWGLELGFQQVGITDTDLSESEPKLQAWLDKQYHGEMDWMARHGMLRARPHELLPGTLRVISVRMNYLPANAAFASTLKNPKLGYVSRYALGRDYHKLLRNRLKKLGEMIQQHCVSLNFRPFVDSAPILERPLAEKAGLGWTGKHSLILNREAGSFFFLGELLVDIPLPVDQPVEEGCGKCVACMTICPTGAIVEPYTVDARRCISYLTIELEGAIPEELRPLMGNRIYGCDDCQLICPWNRYSQLTTEEDFSPRKPLHAPELIELFAWSEEKFLKVTEGSAIRRIGHLRWLRNIAVALGNAPWDETILTALESRKGEHPLLDEHIAWAIAQQIERRNACIVEVQLPKKQRLVRVIEKGLPRDA”, the “total protein half-life in vivo” value is, setting by setting: under setting [7], 5.59 ± 0.68 h; under setting [3], 2.85 ± 0.33 h; under setting [4], 1.41 h; under setting [8], greater than 4 h; under setting [5], 1.85 h; under setting [12], 3.79 h.
